Paper PMC9667838

Molecular target: Secreted form of the peptidase domain (PD) of ACE2 (human)
Assay: BLI

| Substance | Kd [nM] |
| --- | --- |
| Receptor binding domain (RBD) of the spike glycoprotein of SARS-CoV-2 Omicron subvariant BA.2 (from UniProt P0DTC2 319-541) (domain or fragment) | 4.15 |
| Receptor binding domain (RBD) of the spike glycoprotein of SARS-CoV-2 Omicron subvariants BA.4/BA.5 (from UniProt P0DTC2 319-541) (domain or fragment) | 4.55 |
